Source: patent publication US20030157108A1
“And” between values parts separate entries of the source, which are not always exact repeats. Identical values can stand only once.

Tests used:
[1] = target: human FcγRIIIA(V158) (human) (UniProt P08637); test: ELISA, E27 hexamers (E27:IgE complexes) at 0.12 µg/ml (by text and FIG. 13; footnote letters shifted); standard = HEK293
[2] = target: human FcγRIIIA(F158) (human) (UniProt P08637); test: ELISA, E27 hexamers (E27:IgE complexes) at 0.12 µg/ml (by text and FIG. 12; footnote letters shifted); standard = HEK293
human FcγRIIIA(F158) (human), sequence (P08637 17-208 limits assumed): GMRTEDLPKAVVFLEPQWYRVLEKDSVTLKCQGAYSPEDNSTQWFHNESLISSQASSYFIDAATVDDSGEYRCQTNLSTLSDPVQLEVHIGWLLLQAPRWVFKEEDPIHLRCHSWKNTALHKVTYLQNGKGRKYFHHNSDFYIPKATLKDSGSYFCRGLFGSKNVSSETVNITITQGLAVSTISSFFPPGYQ

[3] = target: human FcγRIIIA(V158) (human) (UniProt P08637); test: ELISA, Hu4D5 dimers at 1.11 µg/ml; standard = CHO-S; average of lots
[4] = target: human FcγRIIIA(F158) (human) (UniProt P08637); test: as above
[5] = target: human FcγRIIIA(V158) (human) (UniProt P08637); test: ELISA, Hu4D5 dimers at 1.11 µg/ml; standard = CHO-S
[6] = target: human FcγRIIIA(F158) (human) (UniProt P08637); test: as above
[7] = target: human FcγRIIIA(Phe158) full-length α-chain co-expressed with γ-chain on CHO cells (human) (UniProt P08637); test: cell-based assay, Hu4D5 monomers on CHO cells transfected with FcγRIIIA α-chain and γ-chain (by text and FIG. 28; footnote letters shifted); standard = CHO-S
human FcγRIIIA(Phe158) full-length α-chain co-expressed with γ-chain on CHO cells (human), sequence (P08637 17-254, chain 1 of 2): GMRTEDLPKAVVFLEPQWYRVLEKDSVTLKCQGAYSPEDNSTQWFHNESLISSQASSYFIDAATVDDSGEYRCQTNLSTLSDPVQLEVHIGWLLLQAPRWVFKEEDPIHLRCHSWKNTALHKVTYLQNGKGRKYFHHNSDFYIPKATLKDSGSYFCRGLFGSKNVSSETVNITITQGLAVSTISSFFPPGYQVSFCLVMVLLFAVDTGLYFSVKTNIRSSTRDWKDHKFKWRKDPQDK
human FcγRIIIA(Phe158) full-length α-chain co-expressed with γ-chain on CHO cells (human), sequence (P30273 19-86, chain 2 of 2, further chain): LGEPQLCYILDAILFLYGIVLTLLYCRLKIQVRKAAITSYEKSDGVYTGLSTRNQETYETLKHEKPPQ

[8] = target: human FcγRIIIA(V158) (human) (UniProt P08637); test: ELISA, Hu4D5 dimers; Table 2 prints 23.1 for the average
[9] = target: human FcγRIIIA(Phe158) full-length α-chain co-expressed with γ-chain on CHO cells (human) (UniProt P08637); test: cell-based assay, Hu4D5 monomers on CHO cells transfected with FcγRIIIA α-chain and γ-chain (by text and FIG. 28; footnote letters shifted); standard = CHO-S; average of lots
[10] = target: human FcγRIIIA(V158) (human) (UniProt P08637); test: ELISA, E27 dimers at 0.12 µg/ml (by text and FIG. 10; footnote letters shifted); standard = HEK293
[11] = target: human FcγRIIIA(F158) (human) (UniProt P08637); test: ELISA, E27 dimers at 0.12 µg/ml (by text and FIG. 11; footnote letters shifted); standard = HEK293

human FcγRIIIA(V158) (human), sequence (P08637 17-208 F176V limits assumed): as the sequence (P08637 17-208 limits assumed) above, with F160V counted along it

How did the ratio A(variant)/A(standard) at A490nm [1] turn out when “E27 with S298A/E333A/K334A substitutions in the Fc region, expressed in HEK293 cells (antibody)” was run?
The ratio A(variant)/A(standard) at A490nm was 1.15.

And the ratio A(variant)/A(standard) at A490nm [2]?
Its ratio A(variant)/A(standard) at A490nm is 1.87.

“Hu4D5 with S298A/E333A/K334A substitutions in the Fc region, expressed in Lec13 cells (fucose-deficient) (antibody)” was tested. Which ratio A(variant)/A(standard) at A490nm [3] did it give?
The ratio A(variant)/A(standard) at A490nm was 23.1.

And the ratio A(variant)/A(standard) at A490nm [4]?
Its ratio A(variant)/A(standard) at A490nm is 33.5.

What about the ratio A(variant)/A(standard) at A490nm [5] of the same substance?
The ratio A(variant)/A(standard) at A490nm was 25.4 and 23.8 and 22.5.

And the ratio A(variant)/A(standard) at A490nm [6]?
Its ratio A(variant)/A(standard) at A490nm is 32.8 and 32.9 and 34.8.

And the ratio variant/standard [7]?
Its ratio variant/standard is 26.8 and 25.9.

What about the fold improvement in binding [8] of the same substance?
Its fold improvement in binding is 21 fold.

And the ratio variant/standard [9]?
Its ratio variant/standard is 26.4.

For “anti-IgE antibody E27 expressed in Lec13 cells (fucose-deficient)”, which ratio A(variant)/A(standard) at A490nm [10] is on record?
The ratio A(variant)/A(standard) at A490nm was 6.44.

What about the ratio A(variant)/A(standard) at A490nm [2] of the same substance?
Its ratio A(variant)/A(standard) at A490nm is 1.92.

And the ratio A(variant)/A(standard) at A490nm [11]?
Its ratio A(variant)/A(standard) at A490nm is 7.63.

Which results are given for “anti-IgE antibody E27 expressed in CHO-DP12 cells on plates (CHO-P)”?
ratio A(variant)/A(standard) at A490nm [10]: 0.32; ratio A(variant)/A(standard) at A490nm [2]: 0.65; ratio A(variant)/A(standard) at A490nm [11]: 0.35

For “Hu4D5 with S298A/E333A/K334A substitutions in the Fc region, expressed in HEK293 cells (antibody)”, which ratio A(variant)/A(standard) at A490nm [6] is on record?
Its ratio A(variant)/A(standard) at A490nm is 20.8.
